{
  "source": "patent US20120107933A1",
  "about": "(GOVERNMENT OF THE UNITED STATES AS REPRESENTED BY THE …, published 2012)",
  "key": {"[1]": {"molecular_target": "human mesothelin on the cell surface (A431/H9 transfectants and human cancer cell lines) (human) (UniProt Q13421)", "sequence (Q13421 other isoform, or with tags, fused parts or gaps limits assumed)": "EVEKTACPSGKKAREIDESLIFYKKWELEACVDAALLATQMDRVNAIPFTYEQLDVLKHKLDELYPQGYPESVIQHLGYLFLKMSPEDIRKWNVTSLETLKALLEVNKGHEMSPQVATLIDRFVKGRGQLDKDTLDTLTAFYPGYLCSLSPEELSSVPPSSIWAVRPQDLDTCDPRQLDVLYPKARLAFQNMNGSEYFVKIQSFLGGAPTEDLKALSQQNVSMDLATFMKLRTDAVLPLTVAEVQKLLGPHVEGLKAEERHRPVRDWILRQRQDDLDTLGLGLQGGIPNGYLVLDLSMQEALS", "test": "cell-based or functional assay"}, "[2]": {"molecular_target": "rabbit IgG Fc-human mesothelin fusion protein (full-length extracellular domain, 296-581) (rabbit; human) (UniProt Q13421)", "sequence (Q13421 other isoform, or with tags, fused parts or gaps limits assumed, form in doubt)": "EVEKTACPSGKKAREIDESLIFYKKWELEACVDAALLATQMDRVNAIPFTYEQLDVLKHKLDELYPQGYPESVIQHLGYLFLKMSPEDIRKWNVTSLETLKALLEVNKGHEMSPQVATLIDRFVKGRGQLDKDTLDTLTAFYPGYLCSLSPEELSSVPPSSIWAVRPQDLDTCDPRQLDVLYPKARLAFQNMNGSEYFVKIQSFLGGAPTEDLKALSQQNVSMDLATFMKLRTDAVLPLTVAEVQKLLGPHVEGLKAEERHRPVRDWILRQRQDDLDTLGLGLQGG", "test": "SPR (Biacore T100), […], kinetic titration"}, "[3]": {"molecular_target": "T1, rabbit IgG Fc-human mesothelin fusion protein (full-length extracellular domain, 296-581) (rabbit; human, UniProt Q13421 296-581)", "T1 construct": "also called rFc-mesothelin; human mesothelin-Fc; not shown: rabbit IgG Fc", "T1 sequence (Q13421 other isoform, or with tags, fused parts or gaps limits assumed, form in doubt)": "as above", "test": "SPR (Biacore T100), rFc-mesothelin injected over amine-coupled HN1 mAb, kinetic titration"}, "[4]": {"molecular_target": "T1, rabbit IgG Fc-human mesothelin fusion …"}, "[5]": {"molecular_target": "human mesothelin (form not stated) (human, UniProt Q13421 296-581)", "sequence (Q13421 other isoform, or with tags, fused parts or gaps limits assumed)": "as the sequence (Q13421 other isoform, or with tags, fused parts or gaps limits assumed, form in doubt) above"}, "[6]": {"molecular_target": "T2, mouse mesothelin (form not stated) (mouse, UniProt Q61468 298-600)", "T2 sequence (looked up)": "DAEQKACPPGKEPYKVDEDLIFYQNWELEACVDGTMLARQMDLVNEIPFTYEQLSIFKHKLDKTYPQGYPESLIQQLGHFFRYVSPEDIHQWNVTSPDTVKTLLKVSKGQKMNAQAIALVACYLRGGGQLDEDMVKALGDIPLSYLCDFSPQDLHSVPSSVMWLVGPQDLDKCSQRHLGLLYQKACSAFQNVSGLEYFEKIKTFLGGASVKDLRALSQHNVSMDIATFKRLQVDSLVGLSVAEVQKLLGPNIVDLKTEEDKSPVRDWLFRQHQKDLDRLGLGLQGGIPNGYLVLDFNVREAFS"}},
  "data": [
    {"molecule": "HA22, an anti-CD22 scFv", "values": [
      {"measurement": "Cytotoxic Assays (WST), IC50 of cell viability, H9 cells", "setting": "[1]", "value": "> 1", "unit": "µg/mL"},
      {"measurement": "Cytotoxic Assays (WST), IC50 of cell viability, H226 cells", "setting": "[1]", "value": "> 1", "unit": "µg/mL"}
    ]},
    {"molecule": "HN1 scFv immunotoxin (HN1 scFv fused to truncated Pseudomonas exotoxin PE38) (from UniProt P11439 278-389; P11439 406-638)", "values": [
      {"measurement": "Kd", "setting": "[2]", "value": 100, "unit": "nM"},
      {"measurement": "Cytotoxic Assays (WST), IC50 of cell viability, H226 cells", "setting": "[1]", "value": 0.013, "unit": "µg/mL"}
    ]},
    {"molecule": "HN1 fully human IgG (IgG gamma1 kappa) (antibody, V domains shown, also called HN1 IgG; HN1 mAb) VH: QVQLVQSGAEVKRPGASVQVSCRASGYSINTYYMQWVRQAPGAGLEWMGVINPSGVTSYAQKFQGRVTLTNDTSTNTVYMQLNSLTSADTAVYYCARWALWGDFGMDVWGKGTLVTVSS VL: DIQMTQSPSTLSASIGDRVTITCRASEGIYHWLAWYQQKPGKAPKLLIYKASSLASGAPSRFSGSGSGTDFTLTISSLQPDDFATYYCQQYSNYPLTFGGGTKLEIKR", "values": [
      {"measurement": "Kd", "setting": "[3]", "value": 3, "unit": "nM"},
      {"measurement": "fold better affinity than the scFv molecule", "setting": "[4]", "value": "> 30", "unit": "fold"}
    ]},
    {"molecule": "HN1 antibody (form not stated) (antibody, V domains shown) VH: QVQLVQSGAEVKRPGASVQVSCRASGYSINTYYMQWVRQAPGAGLEWMGVINPSGVTSYAQKFQGRVTLTNDTSTNTVYMQLNSLTSADTAVYYCARWALWGDFGMDVWGKGTLVTVSS VL: DIQMTQSPSTLSASIGDRVTITCRASEGIYHWLAWYQQKPGKAPKLLIYKASSLASGAPSRFSGSGSGTDFTLTISSLQPDDFATYYCQQYSNYPLTFGGGTKLEIK", "values": [
      {"measurement": "Kd", "setting": "[5]", "value": "~7.5", "unit": "nM"}
    ]},
    {"molecule": "HN2 antibody (form not stated) (antibody, V domains shown) VH: EVQLLESGGGLVQPGGSLRPSCAASGFTFSSYAMSWVRQAPGKGLEWVSAISGSGGSTHYADSVKGRFTISRDNSKNTLYLQMNSLRAEDTAVYYCVRGGALGFDNWGRGTMVTVSS VL: VLTQPPSVSEAPRQRVTISCSGSTSNIGSNVVNWYQQFPGKPPKVVIYYDDLVASGVSDRFSGSRSGTSASLAISGLQSEDEADYYCSAWDDSLNAWVFGGGTKVTV", "values": [
      {"measurement": "Kd", "setting": "[5]", "value": "~1.5", "unit": "nM"},
      {"measurement": "Kd", "setting": "[6]", "value": "~1.5", "unit": "nM"}
    ]}
  ]
}
